Reference: publication PMC7736295 (Cell Discovery, 2020)
Residue numbers refer to the chain shown, from its start. Numbers in names are those of the source.

T1: CASK-CaMK (residues 1-301) (UniProt Q62915 1-301)
T1 chain: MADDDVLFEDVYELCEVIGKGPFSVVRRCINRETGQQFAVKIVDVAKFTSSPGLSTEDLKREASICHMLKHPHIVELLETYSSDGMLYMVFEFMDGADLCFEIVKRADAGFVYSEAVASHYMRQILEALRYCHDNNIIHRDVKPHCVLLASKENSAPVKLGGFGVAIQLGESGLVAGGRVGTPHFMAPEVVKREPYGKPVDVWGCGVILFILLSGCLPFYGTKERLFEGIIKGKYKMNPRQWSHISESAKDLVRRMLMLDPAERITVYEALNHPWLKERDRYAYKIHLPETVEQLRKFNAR

T2: CASK-CaMK (residues 1-319) (UniProt Q62915 1-319)
T2 chain: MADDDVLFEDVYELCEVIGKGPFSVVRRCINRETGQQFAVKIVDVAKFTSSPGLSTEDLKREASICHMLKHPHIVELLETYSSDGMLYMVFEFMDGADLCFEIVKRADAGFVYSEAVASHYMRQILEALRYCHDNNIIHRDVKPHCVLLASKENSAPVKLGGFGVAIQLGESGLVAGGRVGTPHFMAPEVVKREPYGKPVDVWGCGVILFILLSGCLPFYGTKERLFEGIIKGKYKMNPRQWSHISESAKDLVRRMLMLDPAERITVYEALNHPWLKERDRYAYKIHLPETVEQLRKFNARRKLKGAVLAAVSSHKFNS

T3: CASK-CaMK (residues 1-337) (UniProt Q62915 1-337)
T3 construct: CaMK domain of CASK, residues 1-337; also called CASK(residues 1-337); source: E. coli BL21 (DE3), purified (Ni2+-Sepharose, size-exclusion chromatography); not shown: Trx, N-terminal, cleaved; His6, N-terminal, cleaved
T3 sequence (looked up): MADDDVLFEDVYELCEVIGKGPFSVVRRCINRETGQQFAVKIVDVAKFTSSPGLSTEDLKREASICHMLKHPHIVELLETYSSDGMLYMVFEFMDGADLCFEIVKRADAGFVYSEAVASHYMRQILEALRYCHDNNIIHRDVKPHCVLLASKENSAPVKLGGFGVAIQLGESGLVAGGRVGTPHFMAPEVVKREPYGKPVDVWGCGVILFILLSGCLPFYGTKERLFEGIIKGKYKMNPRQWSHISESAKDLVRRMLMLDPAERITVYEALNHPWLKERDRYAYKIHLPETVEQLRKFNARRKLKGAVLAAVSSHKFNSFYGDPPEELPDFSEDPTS

T4: Mint1-CID (residues 338-397) I352A I355A I359A (UniProt O35430 338-397, I352A | I355A | I359A)
T4 sequence: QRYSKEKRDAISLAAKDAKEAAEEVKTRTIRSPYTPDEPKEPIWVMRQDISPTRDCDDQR

B1: Mint1-CID (residues 338-397) (domain or fragment, UniProt O35430 338-397, looked up)
chain: T4 sequence with A15I, A18I, A22I
notes: also called the entire CID; the whole CID; source: E. coli BL21 (DE3), purified (Ni2+-Sepharose, size-exclusion chromatography); not shown: Trx, N-terminal, cleaved; His6, N-terminal, cleaved
B2: Mint1-CID (residues 338-397) I352A I355A I359A (domain or fragment, UniProt O35430 338-397, looked up)
chain: T4 sequence
notes: Mint1-CID residues 338-397 with I352A, I355A and I359A; Probably made as the wild-type fragment (E. coli, Trx-His6 tag removed); also called the mutations in the N-CID; source: recombinant protein
B3: Mint1-CID (residues 338-397) W381A (domain or fragment, UniProt O35430 338-397, looked up)
chain: T4 sequence with A15I, A18I, A22I, W44A
notes: Mint1-CID residues 338-397 with W381A; Probably made as the wild-type fragment (E. coli, Trx-His6 tag removed); also called the C-CID W381A mutation; source: recombinant protein
B4: CASK-CaMK (residues 1-337) (domain or fragment)
chain: T3 sequence (looked up)
B5: Mint1-C-CID (residues 371-397) (domain or fragment, UniProt O35430 371-397, looked up)
chain: YTPDEPKEPIWVMRQDISPTRDCDDQR
notes: C-terminal half of the CID of Mint1, residues 371-397; source: E. coli BL21 (DE3), purified (Ni2+-Sepharose, size-exclusion chromatography); not shown: Trx, N-terminal, cleaved; His6, N-terminal, cleaved

Legend:
[1] = target: T1, CASK-CaMK (residues 1-301); assay: ITC
[2] = target: B4; assay: ITC
[3] = target: T2, CASK-CaMK (residues 1-319); assay: ITC
[4] = target: T3, CASK-CaMK (residues 1-337); assay: ITC; MicroCalorimeter ITC200, 25 °C; Mint1 fragments and mutants injected into CASK-CaMK in the cell; repeated three times; settings: both partners purified
[5] = target: T4, Mint1-CID (residues 338-397) I352A …; assay: ITC

Binder: B1
Kd [1]: 42 nM | Kd [2]: 17 nM | Kd [3]: 30 nM | Kd [4]: ~20 nM

Binder: B2
fold reduction of the binding affinity against the wild-type CID [4]: ~15 fold

Binder: B3
Kd [4]: ~55000 nM

Binder: B4
Kd [5]: 270 nM

Binder: B5
Kd [4]: ~500 nM
